Measured values: patent US20250340632A1 (OSE IMMUNOTHERAPEUTICS, published 2025)
Like-named read-outs stand apart in the source and are kept apart here. Each block holds one molecule with its values, some of them ahead of it.

Columns and labels:
[1] = target: human SIRPg protein at the surface of cells (human T lymphocyte Jurkat cell line; T cells in PBMC) (human) (UniProt Q9P1W8); experiment: cytofluorometry on Jurkat cells, % of positive cells (not the MFI readout of Table 5)
[2] = target: human SIRPg protein at the surface of cells (human T lymphocyte Jurkat cell line; T cells in PBMC) (human) (UniProt Q9P1W8); experiment: cytofluorometry (MFI) on human Jurkat cells, ED50
[3] = target: T1, human SIRPg protein at the surface of cells (human T lymphocyte Jurkat cell line; T cells in PBMC) (human, UniProt Q9P1W8 29-387); experiment: cytofluorometry (MFI) on human Jurkat cells, ED50
T1 construct: whole, on cells; also called SIRPg on Jurkat cells
Method: To measure binding of mouse anti-hSIRPg on human cell lines, cells were first washed in cold-PSE (Phosphate Buffer Saline with 2% of heat-inactivated bovine serum, 2 mM EDTA), blocked for 30 min at room temperature with a mix of 50-fold diluted human Fc-block (#564220, BD Pharmingen) and 20-fold diluted/heat-inactivated human serum (SAB, # H4522-100, Sigma Aldrich) and then incubated for 10 min on ice to slow the cell metabolism. Antibodies in range were incubated for 30 min on ice, and cells were washed with cold-PSE before staining for 30 min on ice with an Alexa 647-labelled goat anti-mouse IgG at 5 μg/ml (#A21236; Fisher Scientific, Illkirch, France). Samples were analyzed on CytoFlex cytofluorometer (Beckman Coulter France, Villepinte).

[4] = target: T2, recombinant human SIRPg protein with His Tag (#11828-H08H, Sino Biological) (human, UniProt Q9P1W8 29-360, biotinylated in the ELISA binding assay (sites not given)); experiment: SIRPg binding ELISA, DO 450 nm (legend: immobilized SIRPg-His at 1 µg/ml; method 1.4: captured antibody, biotinylated SIRPg)
T2 construct: Bought protein; also called human SIRPg His; SIRPg-His

[5] = target: human SIRPa on SIRPa positive U937 human monocyte cell line (human) (UniProt P78324); experiment: binding to U937 cells expressing SIRPa, ED50
[6] = target: T3, recombinant human SIRPa protein with His Tag (#11612-H08H, Sino Biological) (human, UniProt P78324 31-370); experiment: ELISA on immobilized SIRPa, ED50
T3 construct: Bought protein; also called human SIRPa His; SIRPa-His

[7] = target: T3, recombinant human SIRPa protein with …; experiment: competition ELISA on immobilized SIRPa-His against biotinylated CD47-Fc at 3 µg/ml, streptavidin-peroxidase detection [lower graph]
[8] = target: T2, recombinant human SIRPg protein with …; experiment: SIRPg binding ELISA, DO 450 nm (legend: immobilized SIRPg-His at 1 µg/ml; method 1.4: captured antibody, biotinylated SIRPg); remark: listed apart in the source

B1: 26F10 recombinant chimeric anti-SIRPg antibody (antibody, human IgG4 S228P, kappa, V domains shown)
VH: EVQLQQSGTELVRSGASVKLSCTTSGFNIKDYYMHWVKQRPEQGLEWIGWIDPENGDTEYAPKFQGKATMTADTSSNTAYLQLSSLTSEDTAVYYCNAYDGYYGAMDYWGQGTSVTVSS
VL: DVVMPQTPLSLPVSLGDQASISCRSSQSLVHSNGNTYLHWYLQKPGQSPKLLIYKVSNRFSGVPDRFSGSGSGTDFTLKISRVEAEDLGVYFCSQNTHVPLTFGAGTKLELKR
notes: Mouse VH/VL on human IgG4 (S228P) and human CL kappa
- EC50 [3]: 0.156 µg/mL
- EC50 (read off the curve) [4]: ~0.02 µg/mL

B2: 3H8 recombinant chimeric anti-SIRPg antibody (antibody, human IgG4 S228P, kappa, V domains shown)
VH: QIQLVQSGPELKKPGETVNISCMASGYSFTNYGMNWVKQAPGKGLKWMGWINTYTGEPTYADDFKGRFAFSLETSASTAYLQINNLKNEDMATYFCARQPYDYVPSFPYWGQGTLVTVSA
VL: DIVMTQSHKFMSTSVGDRVNITCKASQDVSTAVAWYQLKPGQSPKLLIYWASIRHTGVPDRFTGSGSGTDYTLTISSVQAEHLALYYCQQHYSTPWTFGGGTKLEIKR
notes: as for B1
- EC50 [3]: 0.083 µg/mL

B3: 2H9 recombinant chimeric anti-SIRPg antibody (antibody, human IgG4 S228P, kappa, V domains shown)
VH: DVQLVESGGGLVQPGGSRKLSCAASGFTFSSFGMHWVRQAPEKGLEWVAYISSGSTTIYYADTVKGRFTISRDNPKNTLFLQMTSLRSEDTAMYFCARWTVVTNCFDYWGQGTTLTVSS
VL: QIVLTQSPALMSASPGEKVTMTCSASSSISSMYWYQQKPRSSPKPWIYLTSNLASGVPARFSGSGSGTSYSLTISSMEAEDAATYYCQQWSSNLTFGAGTKLELKR
notes: Mouse VH/VL on human IgG4 (S228P)
- EC50 [3]: 0.426 µg/mL

B5: 13F7 recombinant chimeric anti-SIRPg antibody (antibody, human IgG4 S228P, kappa, V domains shown)
VH: QVQLQQSGAELVRPGVSVKVSCKGSGYTFTDYAMHWVKQSHPKSLEWIGVIGTYYGDAYYNQNFKGKATMTVDKSSSTAYMELARLTSEDSAIYYCARRAGTSDWFAYWGQGTLVTVSA
VL: NIVLTQSPASLAVSLGQRATISCRASESVDSYGNSFMHWYQQKPGQPPKLLIYRASNLESGIPARFSGSGSRTDFTLTINPVEADDVATYYCQQSNEDPPTFGGGTKLEIKR
notes: as for B1
- EC50 [3]: 0.281 µg/mL

B6: 11B5 recombinant chimeric anti-SIRPg antibody (antibody, human IgG4 S228P, kappa, V domains shown)
VH: EVQLVESGGDLVKPGGSLKLSCAASGFAFSDYYMYWVRQTPEKRLEWVATISDDGIYTYYPDSVKGRFTISRDNAKNNLFLQMSSLKSEDTAMYYCARGGYRDYYAMDYWGQGTSVTVSS
VL: DIQMTQSPASLSASVGETVTITCRASENIYSYLAWYQQKQGKSPQLLVYNGITLAEGVPSRFSGSGSGTQFSLKINSLQPEDFGDYYCQHHYGSPRTFGGGTTLEIKR
notes: as for B1
- EC50 [3]: 0.195 µg/mL
- EC50 (read off the curve) [4]: ~0.007 µg/mL
- EC50 (read off the curve) [8]: ~0.006 µg/mL

More lines, now with the values ahead:

- EC50 (read off the curve) [1]: 0.2 µg/mL
- EC50 [2]: 3.88 µg/mL
Molecule: OX119 antibody (SantaCruz reference sc-53114)

- EC50 (read off the curve) [1]: 0.2 µg/mL
- EC50 [2]: 6.97 µg/mL
Molecule: LSB2.20 antibody (Biolegend, reference 336602)

- EC50 [5]: 0.0719 µg/mL
- EC50 [6]: 0.00469 µg/mL
- IC50 (read off the curve) [7]: ~0.7 µg/mL
- EC50 (read off the curve) [4]: ~0.01 µg/mL
- EC50 (read off the curve) [8]: ~0.006 µg/mL
B4: Kwar23 antibody (antibody, V domains shown)
VH: EVQLQQSGAELVKPGASVKLSCTASGFNIKDYYIHWVQQRTEQGLEWIGRIDPEDGETKYAPKFQDKATITADTSSNTAYLHLSSLTSEDTAVYYCARWGAYWGQGTLVTVSS
VL: QIVLTQSPAIMSASPGEKVTLTCSASSSVSSSYLYWYQQKPGSSPKLWIYSTSNLASGVPARFSGSGSGTSYSLTISSMEAEDAASYFCHQWSSYPRTFGAGTKLELK
